Source: article PMC5740062, “CRTC1 mediates preferential transcription at neuronal activity-regulated CRE/TATA promoters” (Scientific Reports, 2017)

Biological target: T1, cAMP-responsive element-binding protein (CREB) (mouse (endogenous in primary cortical …, UniProt Q01147-1 1-341, phosphoserine at 133 (blotted as pCREB after FSK/KCl)))
T1 construct: Precipitated with an anti-CREB antibody and detected on blots as phosphorylated CREB (Ser133); also called pCREB; endogenous CREB; source: endogenous, mouse primary cortical neurons (12 DIV), formaldehyde-crosslinked, in lysate
Experiment: co-IP; endogenous proteins; cortical neurons (12 DIV) treated with vehicle or FSK/KCl, crosslinked with 1% formaldehyde, lysed by sonication (50 mM Tris-HCl pH 8, 1% Triton X-100, 100 mM NaCl, 1 mM MgCl2); 2 mg protein immunoprecipitated overnight at 4 °C with anti-CREB or anti-CRTC1, Dynabeads protein G; blots of CRTC1 and pCREB; percent normalised to the maximum immunoprecipitation with the specific antibody in …
Conditions: partners not purified

T1 sequence (Q01147 other isoform, or with tags, fused parts or gaps): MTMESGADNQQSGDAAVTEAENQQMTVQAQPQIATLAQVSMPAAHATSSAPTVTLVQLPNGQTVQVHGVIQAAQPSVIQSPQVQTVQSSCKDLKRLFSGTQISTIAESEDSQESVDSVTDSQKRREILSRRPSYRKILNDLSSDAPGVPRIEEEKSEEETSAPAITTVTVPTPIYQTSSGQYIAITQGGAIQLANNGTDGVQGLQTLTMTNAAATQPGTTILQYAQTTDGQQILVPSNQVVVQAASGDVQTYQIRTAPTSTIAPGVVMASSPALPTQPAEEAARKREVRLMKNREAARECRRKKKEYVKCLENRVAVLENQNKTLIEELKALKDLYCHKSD

B1: CREB-regulated transcription coactivator-1 (CRTC1) (natural protein, UniProt Q68ED7 1-630, looked up)
chain: MATSNNPRKFSEKIALHNQKQAEETAAFEEVMKDLSLTRAARLQLQKSQYLQLGPSRGQYYGGSLPNVNQIGSSSVDLAFQTPFQSSGLDTSRTTRHHGLVDRVYRERGRLGSPHRRPLSVDKHGRQADSCPYGTVYLSPPADTSWRRTNSDSALHQSTMTPSQAESFTGGSQDAHQKRVLLLTVPGMEDTGAETDKTLSKQSWDSKKAGSRPKSCEVPGINIFPSADQENTTALIPATHNTGGSLPDLTNIHFPSPLPTPLDPEEPPFPALTSSSSTGSLAHLGVGGAGQGMNTPSSSPQHRPAVVSPLSLSTEARRQQAQQVSPTLSPLSPITQAVAMDALSLEQQLPYAFFTQTGSQQPPPQPQPPPPPPPVSQQQPPPPQVSVGLPQGGPLLPSASLTRGPQLPPLSVTVPSTLPQSPTENPGQSPMGIDATSAPALQYRTSAGSPATQSPTSPVSNQGFSPGSSPQHTSTLGSVFGDAYYEQQMTARQANALSRQLEQFNMMENAISSSSLYNPGSTLNYSQAAMMGLSGSHGGLQDPQQLGYTGHGGIPNIILTVTGESPPSLSKELSSTLAGVSDVSFDSDHQFPLDELKIDPLTLDGLHMLNDPDMVLADPATEDTFRMDRL
notes: also called endogenous CRTC1; source: endogenous, mouse primary cortical neurons (12 DIV), formaldehyde-crosslinked, in lysate
percent of CRTC1 co-immunoprecipitated with anti-CREB (FSK/KCl), relative to its immunoprecipitation with anti-CRTC1: ~37%
